Assay results: article PMC7673040 (Nature Communications, 2020)
One block for each binder: values may come before it.

Target: human nascent polypeptide-associated complex (NAC), unlabeled (human, UniProt Q13765 1-215; P20290-2 1-162)
Assay: other fluorescence titration; competition: 1 nM RNC^BDP and 20 nM NAC^Cy3B pre-incubated, unlabeled NAC or NACmt added; FRET fit to Eq. (6); Assay buffer with 1 mg/mL BSA
Conditions: both partners purified

Kd: 0.5 nM
B1: ribosome-nascent chain complex bearing the first ~90 amino acids of pPL(ssmt), labelled with BODIPY-FL on the nascent chain (complex)
chain: MDSKGSSQKGSKLLLRRVVSNLLLCQGVVSTPVCPNGPGNCQVSLRDLFDRAVMVSHYIHDLSSEMFNEFDKRYAQGKGFITMALNSCHTV
modifications: axial-trans-cyclooct-2-en-L-Lysine (TCOK) at an amber codon one residue upstream of the signal sequence, labelled with tetrazine-conjugated BODIPY-FL (BDP)

Kd: 0.55 nM
B2: ribosome-nascent chain complex bearing the first ~90 amino acids of pPL(ss), labelled with BODIPY-FL on the nascent chain (complex)
chain: MDSKGSSQKGSKLALALLLLLLALALCQGVVSTPVCPNGPGNCQVSLRDLFDRAVMVSHYIHDLSSEMFNEFDKRYAQGKGFITMALNSCHTV
modifications: axial-trans-cyclooct-2-en-L-Lysine (TCOK) at an amber codon one residue upstream of the signal sequence, labelled with tetrazine-conjugated BODIPY-FL (BDP)
